Reference: article PMC10873205

Biological target: UBR4_(xtal) (UBR4 residues 4,730–5,183) (human) (UniProt Q5T4S7)
Assay: ITC; UBR4 construct in the cell (74 μM), UBE2A in the syringe at tenfold higher concentration; 25 °C; 0.4 µl then 13 injections of 3 µl; UBE2A into buffer subtracted; single site binding model

Chain of UBR4_(xtal) (UBR4 residues 4,730–5,183) (human) (Q5T4S7 4730-5183): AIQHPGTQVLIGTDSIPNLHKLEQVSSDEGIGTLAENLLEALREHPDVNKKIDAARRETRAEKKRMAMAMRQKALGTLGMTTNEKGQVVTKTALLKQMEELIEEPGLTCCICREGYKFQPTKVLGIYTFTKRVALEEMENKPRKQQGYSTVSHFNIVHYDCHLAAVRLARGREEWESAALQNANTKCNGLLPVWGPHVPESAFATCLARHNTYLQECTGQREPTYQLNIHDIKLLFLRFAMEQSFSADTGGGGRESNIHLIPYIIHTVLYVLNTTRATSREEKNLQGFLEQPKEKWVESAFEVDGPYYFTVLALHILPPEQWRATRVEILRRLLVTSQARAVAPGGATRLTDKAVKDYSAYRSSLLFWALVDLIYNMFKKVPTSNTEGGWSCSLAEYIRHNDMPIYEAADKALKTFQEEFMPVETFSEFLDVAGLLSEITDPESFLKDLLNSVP
Chain of UBE2A (P49459 whole entry): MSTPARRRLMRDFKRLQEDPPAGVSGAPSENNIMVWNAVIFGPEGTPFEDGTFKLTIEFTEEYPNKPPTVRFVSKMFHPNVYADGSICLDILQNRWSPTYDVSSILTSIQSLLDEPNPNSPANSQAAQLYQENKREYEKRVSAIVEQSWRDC

dH: -13.9 kcal/mol
Substance: UBE2A (from UniProt P49459 1-152) (enzyme)
